Here are results for one substance from patent US20060115897A1.

For experiment [1], the target named is C3b (UniProt P01024). Put plainly: cell-based or functional assay.
Experiment [2] has as its target C4b (UniProt P0C0L4). Put plainly: cell-based or functional assay.

Chain of C4b (P0C0L4 20-1744): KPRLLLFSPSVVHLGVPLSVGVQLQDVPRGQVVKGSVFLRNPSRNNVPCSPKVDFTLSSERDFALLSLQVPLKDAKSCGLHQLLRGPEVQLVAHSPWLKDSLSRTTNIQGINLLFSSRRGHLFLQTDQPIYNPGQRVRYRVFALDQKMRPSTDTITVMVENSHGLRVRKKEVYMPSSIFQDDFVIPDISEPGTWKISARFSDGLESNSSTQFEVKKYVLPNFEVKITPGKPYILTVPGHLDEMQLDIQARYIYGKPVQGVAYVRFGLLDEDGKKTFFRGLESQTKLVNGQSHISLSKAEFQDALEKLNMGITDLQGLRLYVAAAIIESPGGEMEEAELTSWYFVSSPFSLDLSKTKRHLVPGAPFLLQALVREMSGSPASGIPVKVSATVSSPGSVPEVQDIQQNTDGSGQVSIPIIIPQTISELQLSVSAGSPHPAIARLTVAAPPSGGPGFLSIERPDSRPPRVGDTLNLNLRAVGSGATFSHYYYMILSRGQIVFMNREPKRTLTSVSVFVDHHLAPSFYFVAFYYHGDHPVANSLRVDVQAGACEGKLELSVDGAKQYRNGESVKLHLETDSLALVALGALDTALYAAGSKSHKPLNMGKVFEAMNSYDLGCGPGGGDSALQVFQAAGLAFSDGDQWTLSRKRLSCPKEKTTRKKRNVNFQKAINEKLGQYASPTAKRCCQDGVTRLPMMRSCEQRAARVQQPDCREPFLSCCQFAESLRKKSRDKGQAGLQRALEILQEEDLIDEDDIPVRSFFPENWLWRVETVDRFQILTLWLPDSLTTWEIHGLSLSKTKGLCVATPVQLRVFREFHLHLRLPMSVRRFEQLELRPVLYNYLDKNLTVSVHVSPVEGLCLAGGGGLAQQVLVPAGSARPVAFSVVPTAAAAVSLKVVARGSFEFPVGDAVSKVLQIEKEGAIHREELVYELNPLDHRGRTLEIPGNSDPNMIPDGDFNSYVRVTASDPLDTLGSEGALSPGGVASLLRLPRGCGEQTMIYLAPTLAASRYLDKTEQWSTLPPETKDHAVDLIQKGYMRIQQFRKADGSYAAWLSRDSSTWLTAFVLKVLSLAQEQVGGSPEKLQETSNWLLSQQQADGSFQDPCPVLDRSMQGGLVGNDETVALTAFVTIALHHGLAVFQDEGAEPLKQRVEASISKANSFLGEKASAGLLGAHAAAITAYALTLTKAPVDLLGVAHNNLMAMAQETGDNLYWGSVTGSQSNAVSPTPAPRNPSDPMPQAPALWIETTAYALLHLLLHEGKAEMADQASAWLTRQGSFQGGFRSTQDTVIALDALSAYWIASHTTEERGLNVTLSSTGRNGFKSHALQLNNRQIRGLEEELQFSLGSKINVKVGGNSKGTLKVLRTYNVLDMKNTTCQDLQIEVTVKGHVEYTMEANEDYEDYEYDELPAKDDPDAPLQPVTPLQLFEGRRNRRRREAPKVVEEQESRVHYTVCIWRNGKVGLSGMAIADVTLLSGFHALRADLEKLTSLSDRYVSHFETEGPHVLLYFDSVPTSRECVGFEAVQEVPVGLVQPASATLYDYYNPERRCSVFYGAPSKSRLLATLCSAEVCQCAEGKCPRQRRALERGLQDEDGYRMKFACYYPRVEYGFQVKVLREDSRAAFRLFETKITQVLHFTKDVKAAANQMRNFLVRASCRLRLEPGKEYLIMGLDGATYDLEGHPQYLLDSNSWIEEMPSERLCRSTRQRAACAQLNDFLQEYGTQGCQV
Chain of C3b (P01024 749-1663 limits assumed, chain 1 of 2): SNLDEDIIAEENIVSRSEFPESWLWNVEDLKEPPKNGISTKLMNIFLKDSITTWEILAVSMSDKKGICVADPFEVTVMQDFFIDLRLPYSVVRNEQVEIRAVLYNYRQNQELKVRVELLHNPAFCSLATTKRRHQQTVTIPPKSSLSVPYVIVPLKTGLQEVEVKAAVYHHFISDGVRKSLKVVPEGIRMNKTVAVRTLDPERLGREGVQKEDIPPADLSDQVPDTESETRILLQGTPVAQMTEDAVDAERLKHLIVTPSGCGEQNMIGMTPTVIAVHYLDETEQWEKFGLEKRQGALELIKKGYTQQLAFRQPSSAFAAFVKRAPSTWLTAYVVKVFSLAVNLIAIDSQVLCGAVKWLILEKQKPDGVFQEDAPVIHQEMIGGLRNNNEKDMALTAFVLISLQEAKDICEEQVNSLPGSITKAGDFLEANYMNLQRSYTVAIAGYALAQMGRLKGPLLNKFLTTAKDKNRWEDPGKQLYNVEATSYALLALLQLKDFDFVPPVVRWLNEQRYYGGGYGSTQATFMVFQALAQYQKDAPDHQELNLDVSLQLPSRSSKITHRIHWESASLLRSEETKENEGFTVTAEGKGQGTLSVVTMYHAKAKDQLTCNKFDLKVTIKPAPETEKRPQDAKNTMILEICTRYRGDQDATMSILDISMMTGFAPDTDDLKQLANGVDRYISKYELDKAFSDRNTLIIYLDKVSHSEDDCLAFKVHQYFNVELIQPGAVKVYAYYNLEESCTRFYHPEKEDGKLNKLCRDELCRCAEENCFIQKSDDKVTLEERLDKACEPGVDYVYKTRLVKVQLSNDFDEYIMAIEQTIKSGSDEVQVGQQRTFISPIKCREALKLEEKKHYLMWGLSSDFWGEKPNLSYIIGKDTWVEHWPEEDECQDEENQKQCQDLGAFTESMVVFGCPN
Chain of C3b (P01024 23-667 limits assumed, chain 2 of 2): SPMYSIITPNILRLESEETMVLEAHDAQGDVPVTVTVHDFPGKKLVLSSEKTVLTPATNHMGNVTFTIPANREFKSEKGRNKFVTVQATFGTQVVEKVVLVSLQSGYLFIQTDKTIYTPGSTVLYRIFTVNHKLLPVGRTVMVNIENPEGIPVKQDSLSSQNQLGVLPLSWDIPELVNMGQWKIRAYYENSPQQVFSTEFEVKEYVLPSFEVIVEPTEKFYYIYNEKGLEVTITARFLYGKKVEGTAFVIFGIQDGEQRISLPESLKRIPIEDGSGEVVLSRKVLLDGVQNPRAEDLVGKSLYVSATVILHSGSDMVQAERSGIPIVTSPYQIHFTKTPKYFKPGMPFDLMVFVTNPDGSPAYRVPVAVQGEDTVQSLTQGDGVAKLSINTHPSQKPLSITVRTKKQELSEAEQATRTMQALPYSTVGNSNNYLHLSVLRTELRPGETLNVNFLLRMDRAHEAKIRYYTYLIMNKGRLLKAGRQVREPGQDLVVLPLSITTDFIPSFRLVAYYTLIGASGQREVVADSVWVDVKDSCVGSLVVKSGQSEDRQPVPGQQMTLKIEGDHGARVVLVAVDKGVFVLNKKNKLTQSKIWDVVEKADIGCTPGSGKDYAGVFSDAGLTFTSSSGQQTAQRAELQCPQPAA

In turn, “histidine-tagged Smallpox Inhibitor of Complement Enzymes (SPICEhis) (from UniProt P68638 20-263)” had an efficiency as cofactor in the degradation of C3b, against VCPhis in experiment [1] of 100 fold. This substance registered a speed as cofactor in the degradation of C4b, against VCPhis in experiment [2] of 6 fold.
